The labels stand for the following.
B1: OR4K15 (parent)
chain: GUUAACGGUCAUAGGCCAUGGAAACUAGGAGCACCAUUUCGCUGCCAGUGAAGAAAUGAACAAAGAAAAUCUGGGCCAGGCAGGCAUCAAAAGAAAUAGUCUUGCGCUCAACCAGAAAGUCUGUAAUCAUUUUAAGGGUA

The variants in this data set derive from B1. Put plainly: self-cleavage, relative activity (ratio to wild type); higher = more cleavage; in vitro, sequencing; the parent is a self-cleaving ribozyme.
As to C6U U131C, the self-cleavage worked out at 0.08.
As for U9A A36G, the figure is 1.59; as for C6U U130C, 0.74; as for C6U U130G, 0.44.
Regarding U9C A56G, the self-cleavage was 1.24.
On to U9C A51U, for which the self-cleavage was 2.13.
On to U9C U49A, for which the self-cleavage was 1.56.
Regarding U9C U49G, the self-cleavage came out at 0.96.
Turning to U9C U49C, the self-cleavage was found to be 1.67.
Regarding A11G A51U, the self-cleavage was 0.82.
Consider A11G A67U, for which the self-cleavage worked out at 1.16.
Consider A11G A67G, for which the self-cleavage was determined as 0.74.
Take C10U A90C: the self-cleavage is 0.97.
Regarding U9C U87C, the self-cleavage is 0.96.
U9C U87A: the self-cleavage was determined as 1.98.
As for U9C U87G, the figure is 0.69; as for U9G U130C, 0.7.
G8A A91G: the self-cleavage is 1.17.
As for U9C U19C, the figure is 1.77; as for U9C U19A, 1.65; as for U9G A92G, 1.15.
With G8U U108A, the self-cleavage was found to be 0.
To U9C G106A belongs 0.01; to U9C G106U, 0; to G7U A66G, 1.42.
On to G7A U102C, for which the self-cleavage stood at 1.75.
As to A11G A47U, the self-cleavage was 0.98.
Consider U9C G48A, for which the self-cleavage is 0.64.
Consider G8U A126G, for which the self-cleavage came to 0.32.
As for A11C U103C, the figure is 0.98.
As for U9A A111G, the self-cleavage was 0.03.
As to U9C A63G, the self-cleavage is 1.64.
To U9A U120A belongs 1.36.
As for U9A U120C, the figure is 0.79.
Regarding U9C A126G, the self-cleavage was determined as 1.19.
For the variant A11C A91G, the self-cleavage turned out to be 1.67.
In the case of U9C U97C, the self-cleavage was 1.09.
Turning to C10U U37C, the self-cleavage stood at 1.65.
Turning to U9C A110U, the self-cleavage came out at 1.32.
Take U9C A110C: the self-cleavage stood at 0.45.
With U9G A68G, the self-cleavage turned out to be 0.72.
Regarding U9A U38C, the self-cleavage came to 1.05.
Consider A11C A63G, for which the self-cleavage stood at 1.91.
To U9A G58A belongs 0.78.
As for G8U A69G, the self-cleavage is 2.76.
Turning to U9C A22U, the self-cleavage is 1.7.
Regarding U9A U139C, the self-cleavage was determined as 1.69.
To U9C C105U belongs 0.14; to G8A A23G, 1.58; to G7U A86U, 1.63.
As for G7A A86U, the self-cleavage was found to be 1.86.
Consider C10A C77U, for which the self-cleavage is 1.18.
Regarding U9A A117G, the self-cleavage is 2.34.
Take A11G A64G: the self-cleavage was 1.3.
Regarding A11G A64U, the self-cleavage is 0.97.
Turning to G8A A33U, the self-cleavage is 2.08.
On to G7A C34U, for which the self-cleavage was 1.3.
For the variant U9C A125G, the self-cleavage is 0.66.
On to U9A U122G, for which the self-cleavage came out at 2.09.
In the case of U9C G21A, the self-cleavage was found to be 1.38.
For C6U A125G, the self-cleavage was 0.53.
On to U9A U127C, for which the self-cleavage stood at 1.05.
In the case of U9A U127A, the self-cleavage was 0.66.
For A11G A63C, the self-cleavage stood at 0.97.
As for A11G A63G, the self-cleavage is 1.1.
Take U9A C32U: the self-cleavage was 1.2.
On to U9A A66G, for which the self-cleavage came out at 1.
U9A A60G: the self-cleavage was determined as 0.57.
Turning to U9A U102C, the self-cleavage stood at 1.97.
To U9A U57C belongs 1.02.
With G7U A91G, the self-cleavage stood at 0.72.
As for U9A U108C, the self-cleavage stood at 0.03.
Regarding U9A A30U, the self-cleavage stood at 1.22.
To G7A A90U belongs 2.31; to U9C U108A, 0.04; to U9A A54G, 1.42.
As to A11G A60G, the self-cleavage stood at 0.86.
With U9G A91C, the self-cleavage was found to be 0.6.
For the variant A11G A62G, the self-cleavage amounted to 1.11.
As for U9C A62G, the figure is 1.49; as for A11G A56G, 0.35; as for G7A A67G, 1.61.
U9A A47U: the self-cleavage worked out at 0.91.
With G8A U43A, the self-cleavage amounted to 2.05.
As to A11C A82U, the self-cleavage came out at 0.36.
For U9A C109A, the self-cleavage was found to be 0.42.
In the case of U9C G74U, the self-cleavage was found to be 0.15.
As for A11C U102C, the figure is 1.91; as for U9C U132A, 1.85; as for U9A A126G, 0.57.
U9A A82G: the self-cleavage amounted to 1.13.
Turning to U9A A82U, the self-cleavage amounted to 0.12.
To G7C A11G belongs 1.03; to G7U, 1.23.
For G7C, the self-cleavage was determined as 1.07.
Turning to G7A, the self-cleavage came out at 1.65.
Consider U9G U12C, for which the self-cleavage was 0.29.
To U9C A52C belongs 1.39; to G8A A18U, 0.97; to A11G A22U, 1.75.
With U9A U100C, the self-cleavage was 1.68.
Take U9A U39C: the self-cleavage was determined as 0.86.
As to U9C A18G, the self-cleavage came to 1.65.
Take U9G A89U: the self-cleavage came to 1.03.
As to U9C A114U, the self-cleavage came to 0.1.
As for C6U U37C, the figure is 1.08.
As for C10A A30G, the figure is 0.63; as for C10U A78G, 0.1; as for U9A A63G, 1.23.
Regarding G7U G137U, the self-cleavage was 1.84.
On to U9C A27G, for which the self-cleavage was 1.55.
To U9C A27U belongs 1.02; to A11C A110U, 1.76.
As for G7U U26C, the figure is 2.12.
In the case of U9C A66U, the self-cleavage was 1.42.
Take C10U U100C: the self-cleavage is 2.44.
Take G7A A96G: the self-cleavage was determined as 2.05.
G7A A96U: the self-cleavage was found to be 1.83.
As for G8A A47C, the figure is 1.67; as for U9G A69G, 1; as for U9G A59G, 1.
As for G7U U122A, the self-cleavage stood at 1.64.
U9C G65A: the self-cleavage stood at 2.38.
For G7U A118G, the self-cleavage came to 1.38.
As for C6U A118G, the figure is 1.06.
For the variant U9G A129G, the self-cleavage turned out to be 0.65.
Turning to G7A A78U, the self-cleavage was 0.33.
As to A11C A24G, the self-cleavage is 1.94.
On to U9C U102C, for which the self-cleavage is 2.15.
Regarding U9C U102A, the self-cleavage is 1.31.
In the case of A11C A60G, the self-cleavage worked out at 1.07.
For U9A G115A, the self-cleavage was 0.23.
For the variant C10U U19C, the self-cleavage came to 1.34.
In the case of G7A U100C, the self-cleavage amounted to 2.22.
As for G7A U100A, the figure is 0.82; as for U9C A118G, 1.32; as for U9C A118U, 0.88.
As for U9C G29A, the self-cleavage stood at 2.15.
For the variant G7U A60G, the self-cleavage is 0.79.
As to A11C A86G, the self-cleavage was 1.7.
Consider U9C A91C, for which the self-cleavage stood at 2.12.
U9C A91G: the self-cleavage turned out to be 1.2.
With C10U A94G, the self-cleavage was 1.27.
To A11G A27G belongs 1.1; to G7U G21A, 0.87; to U9C A55G, 1.28.
With G7A A111U, the self-cleavage was found to be 0.04.
As to G7A A60G, the self-cleavage amounted to 2.29.
As for C6U U49C, the figure is 0.83; as for U9C U39C, 1.45; as for U9C U39A, 1.33.
To U9A A62U belongs 0.88; to U9A A62G, 0.45; to C10U G14U, 0.49.
For the variant U9C U43A, the self-cleavage turned out to be 1.24.
Turning to U9C U43G, the self-cleavage came out at 2.16.
Take U9A A24U: the self-cleavage came to 2.1.
As for C10U U38A, the self-cleavage was 0.84.
In the case of G8A A27G, the self-cleavage turned out to be 1.84.
To G8A A68G belongs 2.15; to U9A U43C, 1.25.
Take U9A U43G: the self-cleavage is 1.18.
On to U9C C61U, for which the self-cleavage turned out to be 2.27.
Turning to U9C A95G, the self-cleavage came out at 1.88.
On to C10A A69G, for which the self-cleavage stood at 0.29.
As for A11G A36U, the self-cleavage was 1.12.
As to C6U U102C, the self-cleavage turned out to be 0.35.

These data come from the RNAGym collection of RNA variant scans (doi:10.7554/elife.90254).
